Experimental data as given in FireProtDB (doi:10.1002/pro.5560041213).

Conditions: Halorhodospira halophila, Thermal, DSC, reversible: yes, whole UniProt chain shown

B1: High-potential iron-sulfur protein isozyme 1 wild type, P04168 (protein)
chain: EPRAEDGHAHDYVNEAADASGHPRYQEGQLCENCAFWGEAVQDGWGRCTHPDFDEVLVKAEGWCSVYAPAS
pH 7, MOPS 20 mM
  Tm: 67.7 °C
pH 9, TAPS 20 mM
  Tm: 66.4 °C
pH 10, CAPS 20 mM
  Tm: 66.5 °C
pH 11, piperidine 40 mM
  Tm: 50.3 °C
